According to paper PMC8973293:

Legend:
[1] = target: human FcγRIIIa-158V (human); assay: SPR; Biacore T200; analysis of Fc-Fc receptor binding; who was immobilised and the conditions are not given
murine FcγRIV (mouse) = assay: as above

Binder | Kd [1] | Kd (murine FcγRIV (mouse))
Desferrioxamine-HuE71-IgG1 (antibody, V domains shown) VH: QVQLVQPGDELVKPGASVKLSCKASGYTFTSYWMQWVKQRPGQGLEWIGEINPSNGRTNYNEMFKSKAVLSVDKSVSTAYMQLSSLTAEDTAVYYCALYDGYYAMDYWGQGTLVTVSS VL: DIVMTQSPSSLAVSVGERVTMSCKSSQSLLYSSNQKNYLAWYQQKPGQSPKLLIYWASTRESGVPDRFSGSGSGTDFTLTISSVKAEDVALYYCQQYHSYPFTFGQGTKLEIK | 664 nM | 539 nM
Desferrioxamine-HuE71-IgG1-Afuco (antibody, V domains shown) VH: QVQLVQPGDELVKPGASVKLSCKASGYTFTSYWMQWVKQRPGQGLEWIGEINPSNGRTNYNEMFKSKAVLSVDKSVSTAYMQLSSLTAEDTAVYYCALYDGYYAMDYWGQGTLVTVSS VL: DIVMTQSPSSLAVSVGERVTMSCKSSQSLLYSSNQKNYLAWYQQKPGQSPKLLIYWASTRESGVPDRFSGSGSGTDFTLTISSVKAEDVALYYCQQYHSYPFTFGQGTKLEIK | 294 nM | 219 nM

Second part, the binder after the results:

Kd [1] | Kd (murine FcγRIV (mouse)) | Binder
873 nM | 724 nM | HuE71-IgG1 (antibody, V domains shown) VH: QVQLVQPGDELVKPGASVKLSCKASGYTFTSYWMQWVKQRPGQGLEWIGEINPSNGRTNYNEMFKSKAVLSVDKSVSTAYMQLSSLTAEDTAVYYCALYDGYYAMDYWGQGTLVTVSS VL: DIVMTQSPSSLAVSVGERVTMSCKSSQSLLYSSNQKNYLAWYQQKPGQSPKLLIYWASTRESGVPDRFSGSGSGTDFTLTISSVKAEDVALYYCQQYHSYPFTFGQGTKLEIK
286 nM | 227 nM | HuE71-IgG1-Afuco (antibody, V domains shown) VH: QVQLVQPGDELVKPGASVKLSCKASGYTFTSYWMQWVKQRPGQGLEWIGEINPSNGRTNYNEMFKSKAVLSVDKSVSTAYMQLSSLTAEDTAVYYCALYDGYYAMDYWGQGTLVTVSS VL: DIVMTQSPSSLAVSVGERVTMSCKSSQSLLYSSNQKNYLAWYQQKPGQSPKLLIYWASTRESGVPDRFSGSGSGTDFTLTISSVKAEDVALYYCQQYHSYPFTFGQGTKLEIK
